Assay results published in patent US20110059887A1.

Molecular target: Human IGF Receptor (Type I IGF receptor) (human) (UniProt P08069)
Test: microtiter plate antibody capture competition assay with IGF Type I receptor

Sequence of Human IGF Receptor (Type I IGF receptor) (human) (P08069 31-1367 limits assumed): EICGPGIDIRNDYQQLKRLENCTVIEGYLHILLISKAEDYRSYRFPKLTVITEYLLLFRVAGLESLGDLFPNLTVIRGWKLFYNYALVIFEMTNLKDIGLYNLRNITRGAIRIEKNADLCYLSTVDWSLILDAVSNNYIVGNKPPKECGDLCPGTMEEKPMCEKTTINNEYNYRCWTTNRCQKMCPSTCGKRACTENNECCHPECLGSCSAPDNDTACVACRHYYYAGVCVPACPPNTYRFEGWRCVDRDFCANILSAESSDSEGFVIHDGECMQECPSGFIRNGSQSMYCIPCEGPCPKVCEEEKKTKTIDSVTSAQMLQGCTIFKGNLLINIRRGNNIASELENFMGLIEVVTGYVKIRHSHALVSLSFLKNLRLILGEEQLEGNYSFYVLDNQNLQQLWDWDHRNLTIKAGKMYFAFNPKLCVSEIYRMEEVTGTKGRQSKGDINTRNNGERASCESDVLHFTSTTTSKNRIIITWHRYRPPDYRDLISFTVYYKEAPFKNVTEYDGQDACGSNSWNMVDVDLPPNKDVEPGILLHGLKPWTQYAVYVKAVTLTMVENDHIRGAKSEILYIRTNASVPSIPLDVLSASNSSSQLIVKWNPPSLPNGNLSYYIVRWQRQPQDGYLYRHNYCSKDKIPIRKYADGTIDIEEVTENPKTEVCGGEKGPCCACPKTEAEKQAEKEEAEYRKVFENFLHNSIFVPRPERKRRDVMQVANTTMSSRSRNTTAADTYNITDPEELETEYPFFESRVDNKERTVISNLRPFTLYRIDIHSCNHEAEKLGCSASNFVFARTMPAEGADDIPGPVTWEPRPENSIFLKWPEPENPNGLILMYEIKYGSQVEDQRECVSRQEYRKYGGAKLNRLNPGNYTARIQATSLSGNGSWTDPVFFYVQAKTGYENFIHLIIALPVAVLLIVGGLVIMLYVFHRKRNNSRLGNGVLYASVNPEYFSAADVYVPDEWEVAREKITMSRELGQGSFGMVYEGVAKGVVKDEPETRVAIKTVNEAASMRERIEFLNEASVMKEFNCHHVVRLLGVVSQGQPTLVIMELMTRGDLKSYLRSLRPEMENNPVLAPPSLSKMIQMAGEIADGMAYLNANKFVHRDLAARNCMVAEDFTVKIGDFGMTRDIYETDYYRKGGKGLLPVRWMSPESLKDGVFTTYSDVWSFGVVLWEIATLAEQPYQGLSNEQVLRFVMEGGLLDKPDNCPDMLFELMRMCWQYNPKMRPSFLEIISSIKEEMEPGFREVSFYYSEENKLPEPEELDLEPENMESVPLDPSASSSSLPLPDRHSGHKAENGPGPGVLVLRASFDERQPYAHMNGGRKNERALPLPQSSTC

Affinity for IGFR (compared to that of human insulin): 90
Substance: KP-insulin (SEQ. ID. NOS. 2 & 4) (ligand; other documents disagree on this pair)
